Source: paper PMC11286772, “Structural basis of antagonist selectivity in endothelin receptors” (Cell Discovery, 2024)

Target: T1, ETA, wild type, as used in the size exclusion chromatography analysis with Fab301 (Homo sapiens, UniProt P25101)
T1 construct: endothelin receptor type A (ETA), human; Probably one of the insect cell constructs m1 or m3; also called WT; WT ETA
Assay: SEC; retention time of each ETA ECL2 alanine mutant–Fab301 complex against the WT–Fab301 complex

T1 sequence (P25101 21-427): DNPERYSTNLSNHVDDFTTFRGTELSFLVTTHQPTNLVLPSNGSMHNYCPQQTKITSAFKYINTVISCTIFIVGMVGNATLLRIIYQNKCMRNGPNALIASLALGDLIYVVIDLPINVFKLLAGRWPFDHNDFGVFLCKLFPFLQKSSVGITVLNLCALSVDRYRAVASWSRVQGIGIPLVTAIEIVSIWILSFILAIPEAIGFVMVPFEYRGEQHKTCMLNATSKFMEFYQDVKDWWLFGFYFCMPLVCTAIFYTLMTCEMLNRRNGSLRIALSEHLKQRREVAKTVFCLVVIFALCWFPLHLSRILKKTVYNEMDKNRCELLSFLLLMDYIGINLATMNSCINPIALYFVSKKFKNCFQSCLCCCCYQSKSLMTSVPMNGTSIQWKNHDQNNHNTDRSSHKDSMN

B1: Fab301, Fab fragment of the anti-ETA monoclonal antibody Getagozumab (Fab, V domains shown)
VH: QVTLKESGPTLVKPTQTLTLTCTFSGFSLTTSGLGVAWIRQPPGKALEWLAHIWSDGDTRYYPALKNRLTITKDTSKNQVVLTMTNMDPVDTATYYCAHMKDDSLYFDNWGQGTLVTVSS
VL: EIVLTQSPDFQSVTPKEKVTITCRASQNIGTSIHWYQQKPDQYPKLLIKYASKSISGVPSRFSGSGSGTDFTLTINSLEAEDAATYYCQHSYSFPWTFGQGTKVEIK
notes: Purified on Ni-NTA, so one chain probably carries a His tag; In the ambrisentan and zibotentan maps the dynamic regions of Fab301 were masked out; also called ETA-specific antibody; Getagozumab Fab; source: Hi5 insect cells, baculovirus (pFastBac Dual), from the culture supernatant, purified (Ni-NTA, Superdex 200)
binding result: binds
